Experimental data as given in patent US11421026B2, “Antibodies that bind human cannabinoid 1 (CB1) receptor” (BIRD ROCK BIO, Inc., priority 2015, dated 2022).
Where a chain is given by its changes, count along the chain named.

B1: PA2LR3-P4C6: phage-derived CB1 binding IgG clone (antibody, V domains shown)
VH: EVQLQQSGAELVRPGSSVKISCKASGYAFSYYWMNWVKQRPGQGLEWIGQIYPGDGDTNYNGKFKGKATLTADKSSSTAYMQLSSLTSEDSAVYFCARSHGNYFPYWGQGTLVTVSA
VL: DIVITQSPAIVSASLGERVTMTCTASSSVSSSYLHWYQQKPGSSPKLWIYSTSNLASGVPARFSGSGSGTSYSLTISSMEAEDAATYYCQQWSSYPLTFGAGTKLEIK
modifications: PA2LR3-P4C6 Heavy Chain Variable region; PA2LR3-P4C6 Light Chain Variable region
B2: 36E12B6C2 Fab: Fab of 36E12B6C2 (antibody, V domains shown)
VH: B1 VH with E1Q, A28E, E46Q, Q82H, S84T, H100G, Y103P, P105A, Y106F
VL: DIQMTQTSSSLSASLGDRVTFSCRASQDISNYLNWYQQKPDGTVKLLIYYTSRLHSGVTSRFRGSGSGTDYSLTISNLEQEDVATYFCQQGHTLPWSFGGGTKLEIK
B3: PA2LR3-P3F8: phage-derived CB1 antibody clone (antibody, V domains shown)
VH: B1 VH with Y31N, K63N
VL: B1 VL with I4L, V11M, I107L
modifications: PA2LR3-P3F8 Heavy Chain Variable Region; PA2LR3-P3F8 Light Chain Variable Region
notes: phage-derived CB1 antibody clone
B4: PA2LR3-P4B5: anti-CB1 antibody; HC variable SEQ ID NO: 26, LC variable SEQ ID NO: 30 (antibody, V domains shown)
VH: B1 VH with N61S, K63R, M81I
VL: B1 VL with I4L, T5N, V11M, Q90H, W92Y, S93H, S94R, Y95S
modifications: PA2LR3- P4B5 Heavy chain variable region; PA2LR3- P4B5 Light chain variable region
B5: PA2LR3-P4G10: phage-derived CB1 binding IgG clone (antibody, V domains shown)
VH: B1 VH with S7F, P105A
VL: B1 VL with I4L, V11M, Y95N, I107L
modifications: PA2LR3-P4G10 Heavy Chain Variable region; PA2LR3-P4G10 Light Chain Variable region
B6: PA2LR3-P6G7: anti-CB1 antibody; HC variable SEQ ID NO: 58, LC variable SEQ ID NO: 62 (antibody, V domains shown)
VH: B1 VH with Y27F, Y31N, Y60F, K67R, T69I, K74I, S77N
VL: B1 VL with I4L, V11M, Q90H, W92H, S93H, S94R, Y95S, L97P, I107L
modifications: PA2LR3-P6G7 Heavy chain variable region; PA2LR3-P6G7 Light chain variable region
B7: PA2LR3-P5E7: phage-derived CB1 antibody clone (antibody, V domains shown)
VH: B1 VH with Y31N, Y60F, K67R, T69I, K74I, S77N
VL: DIVLTQSPTTMAASPGEKITITCSASSSISSNYLHWYQQKPGFSPKLLIYRTSTLASGVPARFSGSGSGTSYSLTISSMEAEDAATYYCHQYHRSPHTFGSGTKLEIK
modifications: PA2LR3-P5E7 Heavy Chain Variable region; PA2LR3-P5E7 Light Chain Variable region
notes: as for B3
B8: PA2LR3-P4B1: anti-CB1 antibody; HC variable SEQ ID NO: 42, LC variable SEQ ID NO: 46 (antibody, V domains shown)
VH: B1 VH with Y27F, Y31N, Y60F, K67R, T69I, K74I, S77N
VL: B1 VL with D1Q, I4L, V11M, Q90H, W92Y, S93H, S94R, Y95S, I107L
modifications: PA2LR3-P4B1 Heavy chain variable region; PA2LR3-P4B1 Light chain variable region
B9: PA2LR3-P6B12: anti-CB1 antibody; HC variable SEQ ID NO: 50, LC variable SEQ ID NO: 54 (antibody, V domains shown)
VH: B1 VH with P105A
VL: B1 VL with D1Q, I4L, V11M, Q90H, W92Y, S93H, S94R, Y95S, T98A, I107L
modifications: PA2LR3-P6B12 Heavy chain variable region; PA2LR3-P6B12 Light chain variable region
B10: PA2LR3-P3A8: phage-derived CB1 antibody clone (antibody, V domains shown)
VH: B1 VH with F64V, P105A
VL: B1 VL with I4M, V11M, Y95N, I107L
modifications: PA2LR3-P3A8 Heavy Chain Variable Region; PA2LR3-P3A8 Light Chain Variable Region
notes: as for B3

Tests used:
[1] = target: T1, human CB1 expressing TRex-CHO cells (Homo sapiens, UniProt P21554); format: cell-based; conditions: forskolin stimulated TRex-CHO CB1 cells
T1 construct: pcDNA4/TO native full length human CB1 receptor construct was transfected into tetracycline inducible system Trex-CHO and Trex-293 cells; expressed in transfected cells
T1 sequence (P21554 whole entry): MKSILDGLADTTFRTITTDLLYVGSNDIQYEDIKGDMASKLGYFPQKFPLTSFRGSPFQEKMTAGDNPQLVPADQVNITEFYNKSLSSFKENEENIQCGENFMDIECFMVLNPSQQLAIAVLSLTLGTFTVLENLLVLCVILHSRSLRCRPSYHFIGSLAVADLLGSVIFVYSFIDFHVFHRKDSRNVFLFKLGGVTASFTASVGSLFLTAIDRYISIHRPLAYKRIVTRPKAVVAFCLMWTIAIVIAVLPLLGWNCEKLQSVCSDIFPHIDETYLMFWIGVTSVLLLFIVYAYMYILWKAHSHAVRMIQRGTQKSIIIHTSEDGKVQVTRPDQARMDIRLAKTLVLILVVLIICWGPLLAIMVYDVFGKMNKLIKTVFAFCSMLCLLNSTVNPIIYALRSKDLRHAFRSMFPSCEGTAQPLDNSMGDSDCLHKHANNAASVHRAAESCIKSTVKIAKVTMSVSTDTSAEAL
Protocol: Data analysis was performed using GraphPad Prism software.
Data analysis was performed using GraphPad Prism.

[2] = target: T2, CB1 surface expression (CB1 TRex-CHO / TRex-293 cells) (Homo sapiens, UniProt P21554); format: cell-based; conditions: for effect on WIN55,212 induced CB1 receptor internalization: antibody 300 nM pre-treatment, 1 μM WIN55,212 1 hour; for CB1 receptor internalization induced by the substance alone: 1 hour
T2 construct: pcDNA4/TO native full length human CB1 receptor construct was transfected into tetracycline inducible system Trex-CHO and Trex-293 cells; expressed in transfected cells; tetracycline induced
T2 sequence (P21554 whole entry): as above
Protocol: 5×10^5 cells/well stably expressing CB1 TRex-CHO cells were seeded in a 6-well plate. Tetracycline (1 μg/ml) was added to culture medium for 24 hours to induce CB1 expression. On the day of the experiment, cells were serum starved for 2 hours. Cells were then pre-incubated with CB1 antibody (300 nM), AM6545 (CB1 neutral antagonist) and negative control (BRIL binder) for half an hour. […] Surface expression of CB1 was stained with anti-CB1 N-terminus mouse monoclonal antibody from R&D and the mean fluorescence intensity (MFI) was determined using flow cytometry.
The impact of CB1 antibody on receptor internalization was also investigated. […] Cells were harvested and stained with anti-CB1 N-terminus mouse monoclonal antibody (R&D).
On the day of the experiment, cells were serum starved for 2 hours. Cells were then pre-incubated with CB1 antibody (300 nM), AM6545 (CB1 neutral antagonist) and negative control (BRIL binder) for half an hour. […] Surface expression of CB1 was stained with anti-CB1 N-terminus mouse monoclonal antibody from R&D and the mean fluorescence intensity (MFI) was determined using flow cytometry (Guava).

[3] = tested on: CB1 receptor signaling, WIN55,212 induced ERK phosphorylation in Trex-CHO CB1 receptor cells; test: ERK activation assay (western blot); format: cell-based, human; conditions: 100 nM
Protocol: (§1) Two days before the experiment, Trex-CHO CB1 receptor cells were seeded at 500,000 cells/well into 6-well plates. 1 μg/mL tetracycline was used to induce CB1 receptor expression after 24 hours. Cells were serum starved for at least two hours before the experiment. […] Cell lysates were harvested and the level of ERK activation was determined by western blot. Anti-ERK and Anti-phospho-specific ERK antibodies were obtained from Cell Signaling Inc.
as §1, with “Trex-CHO CB1 receptor-expressing cells were” for “Trex-CHO CB1 receptor cells were”

[4] = target: A139 iCAPS (human CB1, ICL3 replaced with BRIL); test: ELISA binding of IgG/Fab to CB1 iCAPS A139; conditions: IgG and Fab ELISA, Table 8
Protocol: (§2) Purified IgG was tested for binding to purified CB1 receptor (CB1 Conformation Antigen Presenting System (iCAPS)) by ELISA. Non-biotinylated antigens (e.g. empty iCAPS) were coated directly on Maxisorp plates. The primary antibodies were purified IgGs with 1:3 serial dilutions, incubated on the plate for 1 hour. After 3 rounds of washing with PBST, secondary antibodies HRP goat anti-mouse IgG (Abmart) or HRP goat anti-human IgG (Sigma), depending on the species of the IgGs were added and incubated for another hour. The plates were washed three times with PBST, then developed with TMB (Biopanda). HCl was added to the plates to stop the reaction. Absorbance at 450 nm was read on Emax precision microplate reader (Molecular Devices).
(§3) IgG and Fab molecules tested were 36E12B6C2 IgG, 36E12B6C2 Fab, PA13R3-P1C4 IgG, and PA13R3-P1C4 Fab, compared to negative control BRIL binder P1F7 IgG and P1F7 Fab. For IgG antibodies, the secondary antibody used to detect binding was anti-mouse IgG-HRP; for Fabs, the secondary antibody used to detect binding was anti-human IgG-HRP.

[5] = target: A138 iCAPS (human CB1, ICL3 replaced with protein 1 sequence); test: ELISA binding of IgG/Fab to CB1 iCAPS A138; conditions: IgG and Fab ELISA, Table 8
Protocol: as §2, §3

Molecule	effect on WIN55,212 induced CB1 receptor internalization [2]	CB1 receptor internalization induced by the substance alone [2]	also measured
Cc1c(C(=O)NN2CCS(=O)(=O)CC2)nn(-c2ccc(Cl)cc2Cl)c1-c1ccc(C#CCCC#N)cc1 [AM6545, reference compound]	blocked		effect on cAMP levels without exogenous agonist / mechanism [1]: did not affect cAMP levels
Cc1c(C(=O)c2cccc3ccccc23)c2cccc3c2n1[C@H](CN1CCOCC1)CO3 [WIN55,212, reference compound]			ERK activation by agonist [3]: induced ERK activation
B1	do not block	do not induce	
B2			EC50 [4]: 0.805 nM; EC50 [5]: 1.02 nM
B3	do not block	do not induce	
B4	do not block	do not induce	
B5	do not block	do not induce	
B6	do not block	do not induce	
B7	do not block	do not induce	
B8	do not block	do not induce	
B9	do not block	do not induce	
B10	do not block	do not induce	
